Molecular target: His-PKAC (human wild-type PKAC) (human, UniProt P17612 1-351)
Experiment: ITC

Binder: EPTLPREFTRRGRRGAVSVDSLAEL [36i peptide (25 aa ARHGAP36 pseudosubstrate motif)]
- Kd: 860 nM

— paper PMC5059767 (2016)
